Test results published in paper PMC11924945 (2024).

Target: human CD47 (19 to 135) tagged with human immunoglobulin G1 Fc (N297A) (human, UniProt Q08722 19-135, biotin (NHS-biotin, 10-fold molar excess) in SPR)
Test: SPR

human CD47 (19 to 135) tagged with human immunoglobulin G1 Fc (N297A), sequence (Q08722 19-135, stated change not applied): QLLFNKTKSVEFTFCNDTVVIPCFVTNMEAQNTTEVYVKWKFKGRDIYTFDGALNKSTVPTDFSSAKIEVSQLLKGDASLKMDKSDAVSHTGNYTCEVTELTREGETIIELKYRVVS

B1: Aedes aegypti Nest1 (neutrophil-stimulating factor 1), recombinant, amino acids 22 to 316 (natural protein)
chain: KPTQGSCTLTDEDISDIKSAVQKASKAAVNDIVLDPTLIDKCPMLEKITASLKSVATEIVQMRDSAISTDQVDQLKQNFEDQVNQIVKSRDIFEKQSGTQATKEHGEMLERMTALQVKVTELEQQIAKQTASMYEDMAELIFQRLQMNSTESVRSYTKHMMEEKLEELMNKLETNYRIYLGALRFLNHMNDQELIGKVFDGILKRLGDMKADSDDVKENGRNLLVNLLCWTVNNDFLGKKYKERQVDLYRMALKFYPKTYEKAANEADVRSRQFCEENFPANLITWFAVSWNDRG
modifications: biotin (BirA500 kit) in the yeast library screen
koff: 0.0121 s⁻¹
